One molecule from PMC8386104 (RSC Chemical Biology, 2020) can be followed below.

A value given as a limit tells only on which side of the number the result lay.

The target of experiment [1] is MDM2 (UniProt Q00987 1-491). Put plainly: fluorescence polarisation. A general note: In fluorescence polarisation assays a small probe gives low polarisation when free and higher when bound to something large.
In experiment [2] the target is T1, MDMX (UniProt O15151 1-490).
T1 sequence: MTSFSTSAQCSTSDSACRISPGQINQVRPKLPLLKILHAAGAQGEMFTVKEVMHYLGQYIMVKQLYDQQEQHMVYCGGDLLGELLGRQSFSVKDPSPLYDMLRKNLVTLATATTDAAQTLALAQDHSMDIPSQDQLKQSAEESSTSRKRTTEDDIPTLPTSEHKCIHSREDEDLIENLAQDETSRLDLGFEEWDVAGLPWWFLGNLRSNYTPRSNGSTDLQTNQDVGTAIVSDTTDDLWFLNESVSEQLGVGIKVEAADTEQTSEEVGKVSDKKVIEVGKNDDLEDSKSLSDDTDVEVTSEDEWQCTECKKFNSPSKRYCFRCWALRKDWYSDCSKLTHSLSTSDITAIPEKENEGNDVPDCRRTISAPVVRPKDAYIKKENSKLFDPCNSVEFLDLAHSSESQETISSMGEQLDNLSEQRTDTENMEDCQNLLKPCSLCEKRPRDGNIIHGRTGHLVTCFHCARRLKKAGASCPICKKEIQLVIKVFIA
Put plainly: fluorescence polarisation.

MDM2, sequence (Q00987 whole entry): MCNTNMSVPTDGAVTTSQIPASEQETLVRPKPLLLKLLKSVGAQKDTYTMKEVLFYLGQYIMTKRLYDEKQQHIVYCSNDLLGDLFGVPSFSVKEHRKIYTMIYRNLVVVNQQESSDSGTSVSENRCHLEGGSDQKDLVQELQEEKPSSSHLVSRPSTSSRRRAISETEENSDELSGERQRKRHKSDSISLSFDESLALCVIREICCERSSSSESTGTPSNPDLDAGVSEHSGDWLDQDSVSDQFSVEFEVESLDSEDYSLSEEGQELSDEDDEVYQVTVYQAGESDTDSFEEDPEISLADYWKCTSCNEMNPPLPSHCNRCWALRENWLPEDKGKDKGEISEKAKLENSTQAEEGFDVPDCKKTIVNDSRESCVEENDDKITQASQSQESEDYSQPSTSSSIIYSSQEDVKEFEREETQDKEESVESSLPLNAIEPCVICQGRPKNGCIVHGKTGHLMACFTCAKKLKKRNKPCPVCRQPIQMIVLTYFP

In the case of LTFEHYWALLT (designed binder, C-terminal amide) [PF4P_pDI], the IC50 in experiment [1] and in experiment [2] was under 1 nM each time.
